Here are results for 53 molecules from patent US20190177366A1 (published 2019).

Ends that are not written are not given here.

In this experiment the target is T1, proprotein convertase subtilisin/kexin type 9 (PCSK9) (human, UniProt Q8NBP7 31-152).
T1 construct: domain: prodomain; Recombinant; tag not written as a part; also called rec.PCSK9; His-PCSK9
T1 sequence (Q8NBP7 31-152 limits assumed, chain 1 of 2): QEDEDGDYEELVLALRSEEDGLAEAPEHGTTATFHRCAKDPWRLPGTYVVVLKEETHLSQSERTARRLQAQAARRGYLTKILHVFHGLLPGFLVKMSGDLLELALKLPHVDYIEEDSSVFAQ
T1 sequence (Q8NBP7 153-692 limits assumed, chain 2 of 2): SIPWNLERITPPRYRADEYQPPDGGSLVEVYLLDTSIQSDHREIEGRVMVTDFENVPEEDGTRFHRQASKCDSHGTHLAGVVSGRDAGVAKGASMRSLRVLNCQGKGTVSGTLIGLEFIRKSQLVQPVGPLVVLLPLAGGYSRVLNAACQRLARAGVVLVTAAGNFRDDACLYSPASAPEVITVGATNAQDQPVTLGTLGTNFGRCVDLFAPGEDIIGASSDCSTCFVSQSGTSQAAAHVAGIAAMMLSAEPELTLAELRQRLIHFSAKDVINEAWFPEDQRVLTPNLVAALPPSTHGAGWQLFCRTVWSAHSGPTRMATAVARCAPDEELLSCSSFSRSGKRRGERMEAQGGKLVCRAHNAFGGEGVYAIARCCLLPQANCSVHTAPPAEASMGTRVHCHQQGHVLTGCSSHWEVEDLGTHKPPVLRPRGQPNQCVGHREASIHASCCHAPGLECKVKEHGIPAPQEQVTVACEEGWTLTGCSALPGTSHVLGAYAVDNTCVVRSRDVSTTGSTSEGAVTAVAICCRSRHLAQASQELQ
Briefly: phage spot ELISA. (ELISA stands for enzyme-linked immunosorbent assay.)
Consider TAFTSWEEYLDWVGSGDCLRYRVGSSCS (not fully specified (bridges); cysteine pairing not given here, phage clone) [SEQ ID NO 360], for which the binding result was “binds”.
To TAFTSWEEYLDWVGSGVPWNLARL (phage clone) [SEQ ID NO 314] belongs “binds”.
To TAFTSWEEYLDWVGSGVPWNLAKI (phage clone) [SEQ ID NO 315] belongs “binds”; to TAFTSWEEYLDWVGSGQTTYLRVSSS (phage clone) [SEQ ID NO 341], “binds”; to TAFTSWEEYLDWVGSGCCSYGYEKCCNG [SEQ ID NO 349], “binds”.
As to TAFTSWEEYLDWVGSGGDCGYHYMCSMT (not fully specified (bridges); cysteine pairing not given here, phage clone) [SEQ ID NO 345], the binding result is “binds”.
To TAFTSWEEYLDWVGSGGREMRSVIQM (phage clone) [SEQ ID NO 344] belongs “binds”; to TAFTSWEEYLDWVGSGCPFYDWRCSDFS (not fully specified (bridges); cysteine pairing not given here, phage clone) [SEQ ID NO 328], “binds”.
To TAFTSWEEYLDWVGSGSPCRVGYTPC (not fully specified (bridges); cysteine pairing not given here, phage clone) [SEQ ID NO 351] belongs “binds”.
Take TAFTSWEEYLDWVGSGEDVVCYGRVDYMPLCV (phage clone) [SEQ ID NO 330]: the binding result is given as “binds”.
As for TAFTSWEEYLDWVGSGGDCYPHCRLV (not fully specified (bridges); cysteine pairing not given here, phage clone) [SEQ ID NO 359], the binding result is reported as “binds”.
To TAFTSWEEYLDWVGSGMPWNLARIER (phage clone) [SEQ ID NO 318] belongs “binds”; to TAFTSWEEYLDWVGSGSETGLGTYYG (phage clone) [SEQ ID NO 350], “binds”.
As for TAFTSWEEYLDWVGSGCYPLCRVG (phage clone) [SEQ ID NO 355], the binding result was “binds”.
As to TAFTSWEEYLDWVGSGCYPLCRVL (phage clone) [SEQ ID NO 364], the binding result was “binds”.
To TAFTSWEEYLDWVGSGNVRCYRDVPSCS (not fully specified (bridges); cysteine pairing not given here, phage clone) [SEQ ID NO 329] belongs “binds”; to TAFTSWEEYLDWVGSGACLNHFVSGNMIRC (phage clone) [SEQ ID NO 327], “binds”.
To TAFTSWEEYLDWVGSGEHQFYSYRGVDVYR (phage clone) [SEQ ID NO 324] belongs “binds”; to TAFTSWEEYLDWVGSGNELWNINRLRSS (phage clone) [SEQ ID NO 317], “binds”; to TAFTSWEEYLDWVGSGGCGYRYMCDMINGL (phage clone) [SEQ ID NO 358], “binds”.
Consider TAFTSWEEYLDWVGSGCLDRSGGCYTREGYLS (phage clone) [SEQ ID NO 353], for which the binding result is “binds”.
To TAFTSWEEYLDWVGSGKLWNLGRV (phage clone) [SEQ ID NO 306] belongs “binds”; to TAFTSWEEYLDWVGSGNCARLYSHQRDYSQVC (phage clone) [SEQ ID NO 352], “binds”.
To TAFTSWEEYLDWVGSGNCWSSLRGICENLG (phage clone) [SEQ ID NO 307] belongs “binds”; to TAFTSWEEYLDWVGSGNPTYWLTRIS (phage clone) [SEQ ID NO 331], “binds”; to TAFTSWEEYLDWVGSGALWNMRRVESVAFR (phage clone) [SEQ ID NO 319], “binds”.
With TAFTSWEEYLDWVGSGTRYADRGVMVYSLS (phage clone) [SEQ ID NO 321], the binding result is “binds”.
To TAFTSWEEYLDWVGSGVCSDHYIGGKEVRC (phage clone) [SEQ ID NO 348] belongs “binds”; to TAFTSWEEYLDWVGSGKLWNLTRISS (phage clone) [SEQ ID NO 312], “binds”.
To TAFTSWEEYLDWVGSGRGGYELNIPR (phage clone) [SEQ ID NO 326] belongs “binds”; to TAFTSWEEYLDWVGSGGHPLWNLSRI (phage clone) [SEQ ID NO 316], “binds”.
To TAFTSWEEYLDWVGSGKMTHMKAD (phage clone) [SEQ ID NO 357] belongs “binds”.
As to TAFTSWEEYLDWVGSGPLLWNLQKVH (phage clone) [SEQ ID NO 310], the binding result is listed as “binds”.
Turning to TAFTSWEEYLDWVGSGGCVKYRGSVSCQESKT (phage clone) [SEQ ID NO 323], the binding result was “binds”.
For TAFTSWEEYLDWVGSGQCYPWCRL (phage clone) [SEQ ID NO 338], the binding result is recorded as “binds”.
For the molecule TAFTSWEEYLDWVGSGPRTYLRGLVD (phage clone) [SEQ ID NO 340], the binding result is “binds”.
To TAFTSWEEYLDWVGSGSYRGAWSVFGGSTD (phage clone) [SEQ ID NO 336] belongs “binds”; to TAFTSWEEYLDWVGSGCVKVGLSWIGDCNS (phage clone) [SEQ ID NO 334], “binds”; to TAFTSWEEYLDWVGSGSSTWHFVGGVRV (phage clone) [SEQ ID NO 354], “binds”.
To TAFTSWEEYLDWVGSGVLWNHSRI (phage clone) [SEQ ID NO 308] belongs “binds”.
To TAFTSWEEYLDWVGSGKNNYAYLINMPRAPGI (phage clone) [SEQ ID NO 325] belongs “binds”; to TAFTSWEEYLDWVGSGQELPNHRRLS (phage clone) [SEQ ID NO 346], “binds”; to TAFTSWEEYLDWVGSGKCDSHYIRGVVACH (phage clone) [SEQ ID NO 356], “binds”.
TAFTSWEEYLDWVGSGMVYVDRGVRVFT (phage clone) [SEQ ID NO 322]: the binding result is “binds”.
To TAFTSWEEYLDWVGSGGPWNLNRV (phage clone) [SEQ ID NO 309] belongs “binds”.
To TAFTSWEEYLDWVGSGCWTYLRGGCSVT (not fully specified (bridges); cysteine pairing not given here, phage clone) [SEQ ID NO 339] belongs “binds”; to TAFTSWEEYLDWVGSGNMCYLRGKMDCNIV (phage clone) [SEQ ID NO 347], “binds”.
Consider TAFTSWEEYLDWVGSGPHSYWLDRVQ (phage clone) [SEQ ID NO 332], for which the binding result was “binds”.
To TAFTSWEEYLDWVGSGVVLWNHSRIL (phage clone) [SEQ ID NO 313] belongs “binds”; to TAFTSWEEYLDWVGSGGEYLWNLKRLES (phage clone) [SEQ ID NO 320], “binds”.
To TAFTSWEEYLDWVGSGSCSWNVERIRGCSV (phage clone) [SEQ ID NO 311] belongs “binds”.
To TAFTSWEEYLDWVGSGCMEAWQCSLA (phage clone) [SEQ ID NO 337] belongs “binds”.
With TAFTSWEEYLDWVGSGRGEVYDKGGVIVHL (phage clone) [SEQ ID NO 343], the binding result is “binds”.
